Assay results: US20240343811A1 (SHANDONG SIMCERE BIOPHARMACUTICAL, published 2024)
Positions count from the first letter of the chain named.

Tests used:
[1] = target: human CD16a (158F), full length, on FlpinCHO cells (human, UniProt P08637 17-254); assay: FACS on FlpinCHO cells
[2] = target: T1, human CD16a (158V), full length, on cells (human, UniProt P08637 17-254); assay: FACS on FlpinCHO cells
T1 construct: also used as target for the bought Jurkat-NFAT reporter line stably expressing human CD16a (158V); also called FlpinCHO-human CD16a (158V); FlpinCHO-CD16a (158V)

[3] = target: T2, human CD16b (NA1), full length, on FlpinCHO cells (human, UniProt O75015 17-200); assay: FACS on FlpinCHO cells
T2 construct: also called FlpinCHO-human CD16b (NA1)
T2 chain: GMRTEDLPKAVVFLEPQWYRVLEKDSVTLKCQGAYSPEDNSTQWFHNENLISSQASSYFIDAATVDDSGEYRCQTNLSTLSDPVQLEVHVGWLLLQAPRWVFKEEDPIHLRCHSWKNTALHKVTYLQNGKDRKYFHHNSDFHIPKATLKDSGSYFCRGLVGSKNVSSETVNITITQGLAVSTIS
How it was run: (§1)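 Trypsin-detached FlpinCHO cells expressing full-length CD16b were blocked in PBS+2% BSA and incubated on ice for 1 hour with antibody at varying concentrations. Binding read by flow cytometry as MFI; EC50 from curve fitting.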

[4] = target: T3, human CD16b (NA2), full length, on FlpinCHO cells (human, UniProt O75015 17-200); assay: FACS on FlpinCHO cells
T3 construct: also called FlpinCHO-human CD16b (NA2)
T3 chain: T2 chain with R20S, N49S, D66N, V90I
How it was run: as §1

[5] = target: T4, cynomolgus monkey CD16, full length, on FlpinCHO cells (cynomolgus monkey, UniProt Q8SPW2 17-254); assay: FACS on FlpinCHO cells
T4 construct: also called FlpinCHO-cyno CD16; Flipin CHO-cyno CD16
T4 sequence (Q8SPW2 other isoform, or with tags, fused parts or gaps limits assumed): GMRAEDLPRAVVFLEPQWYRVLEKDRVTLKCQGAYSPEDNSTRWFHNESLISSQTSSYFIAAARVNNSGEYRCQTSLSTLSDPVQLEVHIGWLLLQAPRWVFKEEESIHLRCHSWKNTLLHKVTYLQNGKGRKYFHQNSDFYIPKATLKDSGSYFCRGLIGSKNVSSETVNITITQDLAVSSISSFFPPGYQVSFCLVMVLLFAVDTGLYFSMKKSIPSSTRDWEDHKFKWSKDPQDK
How it was run: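 FlpinCHO cells expressing full-length cynomolgus CD16, blocked in PBS/2% BSA at 2×10⁶ cells/ml, incubated with antibody at various concentrations 1 h on ice. Flow cytometry MFI fitted to give EC50.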

[6] = target: T1, human CD16a (158V), full length, on …; assay: cell-based or functional assay
Human CD16a (158F)-his = target: T5, Human CD16a (158F)-his (human); assay: SPR (Biacore), antibody captured on Protein A
T5 construct: entry holds ECD, AVI tag, linker and His tag
How it was run: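 Protein A–captured antibody was probed with CD16-his ECD in HBS-EP+ at 25 °C: five 2-fold dilutions from 200 nM, 240 s at 30 μL/min, dissociation up to 600 s. Glycine pH 1.5 regenerated the chip. Apparent KD came from a double-referenced 1:1 Langmuir fit.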

[7] = target: T6, CD16 on primary human NK cells (human, UniProt P08637 17-254); assay: FACS on human NK cells, biotinylated antibody
T6 construct: whole, on cells; also called resting NK cells

[8] = target: T6, CD16 on primary human NK cells; assay: FACS on human NK cells, biotinylated antibody, +10 mg/mL human immunoglobulin

B1: VHH12-06 humanized VHH-Fc antibody (Fc fusion)
chain: EVQLVESGGGLVQPGGSLRLSCAASGITFSSYAMGWYRQAPGKQRELVAAINRFGLTNYVDSVKGRFTISRDNAKNSVYLQMNSLRAEDTAVYYCNTGGVYSHPDYYTGTYWGQGTMVTVSSEPKSSDKTHTCPPCPAPEEFGGPSVFLFPPKPKDTLMISRTPEVTCVVVAVSHEDPEVKFNWYVDGVEVHNAKTKPREEQYNSTYRVVSVLTVLHQDWLNGKEYKCKVSNKALPAPIEKTISKAKGQPREPQVYTLPPSREEMTKNQVSLTCLVKGFYPSDIAVEWESNGQPENNYKTTPPVLDSDGSFFLYSKLTVDKSRWQQGNVFSCSVMHEALHNHYTQKSLSLSPGK
B1 was tested, and the EC50 [1] was 0.6 nM, the “Maximum mean fluorescence intensity” value [1] was 8770 and the EC50 [2] was 0.64 nM. The “Maximum mean fluorescence intensity” value [2] was 7550, the EC50 [3] was 1.94 nM and the “Maximum mean fluorescence intensity” value [3] was 40600. For the same binder, the “Maximum mean fluorescence intensity” value [4] was 69800, the EC50 [5] was 0.83 nM and the “Maximum mean fluorescence intensity” value [5] was 18600. For the same binder, the “EC50, activation activity for Jurkat cell” value [6] was 0.02 nM, the Maximum fluorescence value [6] was 158000 and the Kd (Human CD16a (158F)-his) was 27.6 nM. The koff (Human CD16a (158F)-his) was 0.0164 s⁻¹, the kon (Human CD16a (158F)-his) was 592000 M⁻¹ s⁻¹ and the EC50 [7] was 0.53 nM. The “Maximum mean fluorescence intensity” value [7] was 39300, the EC50 [8] was 1.69 nM and the “Maximum mean fluorescence intensity” value [8] was 38100.
